Reference: article PMC3466273

Target: His1 (position 1, -----HTASDA)
Test: potentiometry
Settings: not stated (electrode with a thermo-compensating apparatus); not stated (no added salt; distilled water with about 1 mM HCl/NaOH); none (distilled water acidified with 1 mM HCl, titrated with 1 mM NaOH); free peptide, 0.27 mM, 5 mL, in water

HTASDAAAAAALTAANAAAAAAASMA
pKa: 6.0
